Measurements as given in patent publication US6475744 (GENERAL HOSPITAL CORPORATION A MASSACHUSETTS, dated 2002).

Target: T1, βgalactosidase (UniProt P00722 1-1024 = β-galactosidase, limits assumed)
T1 construct: Construct not described; also called specificity control
Assay: co-immunoprecipitation from co-transfected COS7 cells, anti-HA IP

T1 sequence (P00722 whole entry): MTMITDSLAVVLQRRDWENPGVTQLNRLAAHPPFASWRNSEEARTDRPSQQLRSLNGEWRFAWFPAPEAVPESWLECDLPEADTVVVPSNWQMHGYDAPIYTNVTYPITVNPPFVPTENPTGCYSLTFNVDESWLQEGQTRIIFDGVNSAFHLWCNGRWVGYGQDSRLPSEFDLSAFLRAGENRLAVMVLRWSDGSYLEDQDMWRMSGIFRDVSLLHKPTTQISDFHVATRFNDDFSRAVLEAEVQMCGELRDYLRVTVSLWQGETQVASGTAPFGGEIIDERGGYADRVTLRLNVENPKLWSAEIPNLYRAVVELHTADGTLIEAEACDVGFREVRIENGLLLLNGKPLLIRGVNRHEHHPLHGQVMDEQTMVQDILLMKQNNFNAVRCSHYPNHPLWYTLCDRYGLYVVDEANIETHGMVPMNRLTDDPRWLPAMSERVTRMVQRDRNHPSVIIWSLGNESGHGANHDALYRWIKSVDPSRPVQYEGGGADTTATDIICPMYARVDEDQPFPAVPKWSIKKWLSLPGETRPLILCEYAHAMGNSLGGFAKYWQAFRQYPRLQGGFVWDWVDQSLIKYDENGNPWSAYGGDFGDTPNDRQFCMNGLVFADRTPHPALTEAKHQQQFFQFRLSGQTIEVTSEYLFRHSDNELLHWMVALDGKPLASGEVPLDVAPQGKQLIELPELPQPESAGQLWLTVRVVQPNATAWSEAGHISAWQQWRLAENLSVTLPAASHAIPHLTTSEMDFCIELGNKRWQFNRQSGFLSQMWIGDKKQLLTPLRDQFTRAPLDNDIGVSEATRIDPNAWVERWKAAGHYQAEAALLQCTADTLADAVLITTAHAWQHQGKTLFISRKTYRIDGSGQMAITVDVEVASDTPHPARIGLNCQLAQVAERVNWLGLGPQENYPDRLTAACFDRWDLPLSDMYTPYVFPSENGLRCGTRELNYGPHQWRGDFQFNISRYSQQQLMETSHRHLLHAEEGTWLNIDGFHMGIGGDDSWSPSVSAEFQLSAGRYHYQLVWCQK

B1: mCRY1-HA (other, mouse, UniProt P97784 1-606, looked up, not shown: small tags and cut ends)
chain: MGVNAVHWFRKGLRLHDNPALKECIQGADTIRCVYILDPWFAGSSNVGINRWRFLLQCLEDLDANLRKLNSRLFVIRGQPADVFPRLFKEWNITKLSIEYDSEPFGKERDAAIKKLATEAGVEVIVRISHTLYDLDKIIELNGGQPPLTYKRFQTLVSKMEPLEMPADTITSDVIGKCMTPLSDDHDEKYGVPSLEELGFDTDGLSSAVWPGGETEALTRLERHLERKAWVANFERPRMNANSLLASPTGLSPYLRFGCLSCRLFYFKLTDLYKKVKKNSSPPLSLYGQLLWREFFYTAATNNPRFDKMEGNPICVQIPWDKNPEALAKWAEGRTGFPWIDAIMTQLRQEGWIHHLARHAVACFLTRGDLWISWEEGMKVFEELLLDADWSINAGSWMWLSCSSFFQQFFHCYCPVGFGRRTDPNGDYIRRYLPVLRGFPAKYIYDPWNAPEGIQKVAKCLIGVNYPKPMVNHAEASRLNIERMKQIYQQLSRYRGLGLLASVPSNSNGNGGLMGYAPGENVPSCSSSGNGGLMGYAPGENVPSCSGGNCSQGSGILHYAHGDSQQTHSLKQGRSSAGTGLSSGKRPSQEEDAQSVGPKVQRQSSN
binding result: no binding
